# Assays:
# [1] = substrate: OC[C@H]1O[C@H](Oc2ccccc2O)[C@H](O)[C@@H](O)[C@@H]1O; assay: initial rates by TLC densitometry; Michaelis-Menten fit; type: biochemical, Limosilactobacillus reuteri; details: acceptor substrate, 1000 mM sucrose as donor, pH 4.7, 37 °C
# Source text: initial rates by TLC densitometry; Michaelis-Menten fit on Gtf180-ΔN
# [2] = substrate: Oc1ccccc1O; assay: initial rates of catechol-G1 formation by TLC densitometry; Michaelis-Menten fit; type: biochemical, Limosilactobacillus reuteri; details: acceptor substrate, 1000 mM sucrose as donor, pH 4.7, 37 °C
# Source text: initial rates of catechol-G1 formation by TLC densitometry; Michaelis-Menten fit on Gtf180-ΔN
Protein,Km [1],kcat [1],kcat/Km [1],Km [2],kcat [2],kcat/Km [2]
"Gtf180-ΔN (Limosilactobacillus reuteri) (protein, N-terminally truncated Gtf180 (ΔN)) INGQQYYIDPTTGQPRKNFLLQNGNDWIYFDKDTGAGTNALKLQFDKGTISADEQYRRGNEAYSYDDKSIENVNGYLTADTWYRPKQILKDGTTWTDSKETDMRPILMVWWPNTVTQAYYLNYMKQYGNLLPASLPSFSTDADSAELNHYSELVQQNIEKRISETGSTDWLRTLMHEFVTKNSMWNKDSENVDYGGLQLQGGFLKYVNSDLTKYANSDWRLMNRTATNIDGKNYGGAEFLLANDIDNSNPVVQAEELNWLYYLMNFGTITGNNPEANFDGIRVDAVDNVDVDLLSIARDYFNAAYNMEQSDASANKHINILEDWGWDDPAYVNKIGNPQLTMDDRLRNAIMDTLSGAPDKNQALNKLITQSLVNRANDNTENAVIPSYNFVRAHDSNAQDQIRQAIQAATGKPYGEFNLDDEKKGMEAYINDQNSTNKKWNLYNMPSAYTILLTNKDSVPRVYYGDLYQDGGQYMEHKTRYFDTITNLLKTRVKYVAGGQTMSVDKNGILTNVRFGKGAMNATDTGTDETRTEGIGVVISNNTNLKLNDGESVVLHMGAAHKNQKYRAVILTTEDGVKNYTNDTDAPVAYTDANGDLHFTNTNLDGQQYTAVRGYANPDVTGYLAVWVPAGAADDQDARTAPSDEAHTTKTAYRSNAALDSNVIYEGFSNFIYWPTTESERTNVRIAQNADLFKSWGITTFELAPQYNSSKDGTFLDSIIDNGYAFTDRYDLGMSTPNKYGSDEDLRNALQALHKAGLQAIADWVPDQIYNLPGKEAVTVTRSDDHGTTWEVSPIKNVVYITNTIGGGEYQKKYGGEFLDTLQKEYPQLFSQVYPVTQTTIDPSVKIKEWSAKYFNGTNILHRGAGYVLRSNDGKYYNLGTSTQQFLPSQLSVQDNEGYGFVKEGNNYHYYDENKQMVKDAFIQDSVGNWYYFDKNGNMVANQSPVEISSNGASGTYLFLNNGTSFRSGLVKTDAGTYYYDGDGRMVRNQTVSDGAMTYVLDENGKLVSESFDSSATEAHPLKPGDLNGQK",88.8 ± 17.1 mM,863 ± 39.3 s⁻¹,10200 M⁻¹ s⁻¹,,,
"Gtf180-ΔN (Limosilactobacillus reuteri; L938F) (protein, N-terminally truncated Gtf180 (ΔN)) INGQQYYIDPTTGQPRKNFLLQNGNDWIYFDKDTGAGTNALKLQFDKGTISADEQYRRGNEAYSYDDKSIENVNGYLTADTWYRPKQILKDGTTWTDSKETDMRPILMVWWPNTVTQAYYLNYMKQYGNLLPASLPSFSTDADSAELNHYSELVQQNIEKRISETGSTDWLRTLMHEFVTKNSMWNKDSENVDYGGFQLQGGFLKYVNSDLTKYANSDWRLMNRTATNIDGKNYGGAEFLLANDIDNSNPVVQAEELNWLYYLMNFGTITGNNPEANFDGIRVDAVDNVDVDLLSIARDYFNAAYNMEQSDASANKHINILEDWGWDDPAYVNKIGNPQLTMDDRLRNAIMDTLSGAPDKNQALNKLITQSLVNRANDNTENAVIPSYNFVRAHDSNAQDQIRQAIQAATGKPYGEFNLDDEKKGMEAYINDQNSTNKKWNLYNMPSAYTILLTNKDSVPRVYYGDLYQDGGQYMEHKTRYFDTITNLLKTRVKYVAGGQTMSVDKNGILTNVRFGKGAMNATDTGTDETRTEGIGVVISNNTNLKLNDGESVVLHMGAAHKNQKYRAVILTTEDGVKNYTNDTDAPVAYTDANGDLHFTNTNLDGQQYTAVRGYANPDVTGYLAVWVPAGAADDQDARTAPSDEAHTTKTAYRSNAALDSNVIYEGFSNFIYWPTTESERTNVRIAQNADLFKSWGITTFELAPQYNSSKDGTFLDSIIDNGYAFTDRYDLGMSTPNKYGSDEDLRNALQALHKAGLQAIADWVPDQIYNLPGKEAVTVTRSDDHGTTWEVSPIKNVVYITNTIGGGEYQKKYGGEFLDTLQKEYPQLFSQVYPVTQTTIDPSVKIKEWSAKYFNGTNILHRGAGYVLRSNDGKYYNLGTSTQQFLPSQLSVQDNEGYGFVKEGNNYHYYDENKQMVKDAFIQDSVGNWYYFDKNGNMVANQSPVEISSNGASGTYLFLNNGTSFRSGLVKTDAGTYYYDGDGRMVRNQTVSDGAMTYVLDENGKLVSESFDSSATEAHPLKPGDLNGQK",91.1 ± 7.3 mM,576 ± 44 s⁻¹,6300 M⁻¹ s⁻¹,85.5 ± 4.0 mM,1870 ± 74.7 s⁻¹,21900 M⁻¹ s⁻¹
"Gtf180-ΔN (Limosilactobacillus reuteri; N1029M) (protein, N-terminally truncated Gtf180 (ΔN)) INGQQYYIDPTTGQPRKNFLLQNGNDWIYFDKDTGAGTNALKLQFDKGTISADEQYRRGNEAYSYDDKSIENVNGYLTADTWYRPKQILKDGTTWTDSKETDMRPILMVWWPNTVTQAYYLNYMKQYGNLLPASLPSFSTDADSAELNHYSELVQQNIEKRISETGSTDWLRTLMHEFVTKNSMWNKDSENVDYGGLQLQGGFLKYVNSDLTKYANSDWRLMNRTATNIDGKNYGGAEFLLANDIDNSNPVVQAEELNWLYYLMNFGTITGNNPEANFDGIRVDAVDMVDVDLLSIARDYFNAAYNMEQSDASANKHINILEDWGWDDPAYVNKIGNPQLTMDDRLRNAIMDTLSGAPDKNQALNKLITQSLVNRANDNTENAVIPSYNFVRAHDSNAQDQIRQAIQAATGKPYGEFNLDDEKKGMEAYINDQNSTNKKWNLYNMPSAYTILLTNKDSVPRVYYGDLYQDGGQYMEHKTRYFDTITNLLKTRVKYVAGGQTMSVDKNGILTNVRFGKGAMNATDTGTDETRTEGIGVVISNNTNLKLNDGESVVLHMGAAHKNQKYRAVILTTEDGVKNYTNDTDAPVAYTDANGDLHFTNTNLDGQQYTAVRGYANPDVTGYLAVWVPAGAADDQDARTAPSDEAHTTKTAYRSNAALDSNVIYEGFSNFIYWPTTESERTNVRIAQNADLFKSWGITTFELAPQYNSSKDGTFLDSIIDNGYAFTDRYDLGMSTPNKYGSDEDLRNALQALHKAGLQAIADWVPDQIYNLPGKEAVTVTRSDDHGTTWEVSPIKNVVYITNTIGGGEYQKKYGGEFLDTLQKEYPQLFSQVYPVTQTTIDPSVKIKEWSAKYFNGTNILHRGAGYVLRSNDGKYYNLGTSTQQFLPSQLSVQDNEGYGFVKEGNNYHYYDENKQMVKDAFIQDSVGNWYYFDKNGNMVANQSPVEISSNGASGTYLFLNNGTSFRSGLVKTDAGTYYYDGDGRMVRNQTVSDGAMTYVLDENGKLVSESFDSSATEAHPLKPGDLNGQK",,,,58.9 ± 6.4 mM,449 ± 4.9 s⁻¹,7700 M⁻¹ s⁻¹
"Gtf180-ΔN (Limosilactobacillus reuteri; L981A) (protein, N-terminally truncated Gtf180 (ΔN)) INGQQYYIDPTTGQPRKNFLLQNGNDWIYFDKDTGAGTNALKLQFDKGTISADEQYRRGNEAYSYDDKSIENVNGYLTADTWYRPKQILKDGTTWTDSKETDMRPILMVWWPNTVTQAYYLNYMKQYGNLLPASLPSFSTDADSAELNHYSELVQQNIEKRISETGSTDWLRTLMHEFVTKNSMWNKDSENVDYGGLQLQGGFLKYVNSDLTKYANSDWRLMNRTATNIDGKNYGGAEFALANDIDNSNPVVQAEELNWLYYLMNFGTITGNNPEANFDGIRVDAVDNVDVDLLSIARDYFNAAYNMEQSDASANKHINILEDWGWDDPAYVNKIGNPQLTMDDRLRNAIMDTLSGAPDKNQALNKLITQSLVNRANDNTENAVIPSYNFVRAHDSNAQDQIRQAIQAATGKPYGEFNLDDEKKGMEAYINDQNSTNKKWNLYNMPSAYTILLTNKDSVPRVYYGDLYQDGGQYMEHKTRYFDTITNLLKTRVKYVAGGQTMSVDKNGILTNVRFGKGAMNATDTGTDETRTEGIGVVISNNTNLKLNDGESVVLHMGAAHKNQKYRAVILTTEDGVKNYTNDTDAPVAYTDANGDLHFTNTNLDGQQYTAVRGYANPDVTGYLAVWVPAGAADDQDARTAPSDEAHTTKTAYRSNAALDSNVIYEGFSNFIYWPTTESERTNVRIAQNADLFKSWGITTFELAPQYNSSKDGTFLDSIIDNGYAFTDRYDLGMSTPNKYGSDEDLRNALQALHKAGLQAIADWVPDQIYNLPGKEAVTVTRSDDHGTTWEVSPIKNVVYITNTIGGGEYQKKYGGEFLDTLQKEYPQLFSQVYPVTQTTIDPSVKIKEWSAKYFNGTNILHRGAGYVLRSNDGKYYNLGTSTQQFLPSQLSVQDNEGYGFVKEGNNYHYYDENKQMVKDAFIQDSVGNWYYFDKNGNMVANQSPVEISSNGASGTYLFLNNGTSFRSGLVKTDAGTYYYDGDGRMVRNQTVSDGAMTYVLDENGKLVSESFDSSATEAHPLKPGDLNGQK",,,,11.0 ± 1.3 mM,203 ± 8.1 s⁻¹,18700 M⁻¹ s⁻¹

# Reference: PMC4980424, “Glucansucrase Gtf180-ΔN of Lactobacillus reuteri 180: enzyme and reaction engineering for improved glycosylation of non-carbohydrate molecules” (Applied Microbiology and Biotechnology, 2016)
